Measured values reported in US20190194356A1 (CHANGZHOU BOJIA BIOTECHNOLOGY, published 2019).

B1: monoclonal antibody 9M284QL (antibody)
heavy: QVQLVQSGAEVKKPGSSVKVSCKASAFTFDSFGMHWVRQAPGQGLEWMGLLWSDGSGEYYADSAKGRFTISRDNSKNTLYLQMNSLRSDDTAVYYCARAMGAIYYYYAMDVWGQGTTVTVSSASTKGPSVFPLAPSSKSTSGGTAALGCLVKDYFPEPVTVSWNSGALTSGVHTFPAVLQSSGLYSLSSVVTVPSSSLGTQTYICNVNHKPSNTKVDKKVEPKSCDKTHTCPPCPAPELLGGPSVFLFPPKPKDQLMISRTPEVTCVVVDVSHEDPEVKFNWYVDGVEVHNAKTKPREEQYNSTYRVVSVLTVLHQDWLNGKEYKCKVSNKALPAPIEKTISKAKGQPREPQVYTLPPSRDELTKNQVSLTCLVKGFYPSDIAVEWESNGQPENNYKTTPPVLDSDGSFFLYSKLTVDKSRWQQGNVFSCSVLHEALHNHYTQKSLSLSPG
light: QSALTQPPSVSGSPGQSVTISCTGTSSNIGNQFVSWYQQLPGTAPKLMIYEYNKRPSGVPDRFSGSKSGNTASLTISGLQTGDEADYYCGSWDSSLSGYVFGTGTRVTVLGQPKAAPSVTLFPPSSEELQANKATLVCLISDFYPGAVTVAWKADSSPVKAGVETTTPSKQSNNKYAASSYLSLTPEQWKSHRSYSCQVTHEGSTVEKTVAPTECS
notes: also called long half-life PCSK9 monoclonal antibody 9M284-QL
B2: monoclonal antibody 9M284YTE (antibody)
heavy: QVQLVQSGAEVKKPGSSVKVSCKASAFTFDSFGMHWVRQAPGQGLEWMGLLWSDGSGEYYADSAKGRFTISRDNSKNTLYLQMNSLRSDDTAVYYCARAMGAIYYYYAMDVWGQGTTVTVSSASTKGPSVFPLAPSSKSTSGGTAALGCLVKDYFPEPVTVSWNSGALTSGVHTFPAVLQSSGLYSLSSVVTVPSSSLGTQTYICNVNHKPSNTKVDKKVEPKSCDKTHTCPPCPAPELLGGPSVFLFPPKPKDTLYITREPEVTCVVVDVSHEDPEVKFNWYVDGVEVHNAKTKPREEQYNSTYRVVSVLTVLHQDWLNGKEYKCKVSNKALPAPIEKTISKAKGQPREPQVYTLPPSRDELTKNQVSLTCLVKGFYPSDIAVEWESNGQPENNYKTTPPVLDSDGSFFLYSKLTVDKSRWQQGNVFSCSVMHEALHNHYTQKSLSLSPG
light: B1 light
B3: monoclonal antibody 9M283 (antibody, human IgG2, lambda, V domains shown)
VH: QVQLVQSGAEVKKPGSSVKVSCKASAFTFDSFGMHWVRQAPGQGLEWMGLLWSDGSDEYYADSAKGRFTISRDNSKNTLYLQMNSLRSDDTAVYYCARALGAIYSYYAMDVWGQGTTVTVSS
VL: QSALTQPPSVSGSPGQSVTISCTGTSSNIGNQFVSWYQQLPGTAPKLMIYEYNKRPSGVPDRFSGSKSGNTASLTISGLQTGDEADYYCGSWDSSLSGYVFGTGTRVTVLG
notes: the claims call them variable regions; also called PCSK9 monoclonal antibody 9M283
B4: monoclonal antibody 9M284 (antibody, human IgG2, lambda)
heavy: QVQLVQSGAEVKKPGSSVKVSCKASAFTFDSFGMHWVRQAPGQGLEWMGLLWSDGSGEYYADSAKGRFTISRDNSKNTLYLQMNSLRSDDTAVYYCARAMGAIYYYYAMDVWGQGTTVTVSSASTKGPSVFPLAPCSRSTSESTAALGCLVKDYFPEPVTVSWNSGALTSGVHTFPAVLQSSGLYSLSSVVTVPSSNFGTQTYTCNVDHKPSNTKVDKTVERKCCVECPPCPAPPVAGPSVFLFPPKPKDTLMISRTPEVTCVVVDVSHEDPEVQFNWYVDGVEVHNAKTKPREEQFNSTFRVVSVLTVVHQDWLNGKEYKCKVSNKGLPAPIEKTISKTKGQPREPQVYTLPPSREEMTKNQVSLTCLVKGFYPSDIAVEWESNGQPENNYKTTPPMLDSDGSFFLYSKLTVDKSRWQQGNVFSCSVMHEALHNHYTQKSLSLSPG
light: B1 light
notes: Fully human antibody from a phage library; the claims call 24 and 26 variable regions; also called PCSK9 monoclonal antibody 9M284

Legend:
[1] = target: neonatal Fc receptor FcRn; assay: ELISA at pH 6.0, antibody coated at 10 µg/mL, His-tagged FcRn titrated, anti-His-Tag-HRP
Method: (§1) The target antibody was diluted to 10 μg/mL with coating solution (15 mM Na₂CO₃, 35 mM NaHCO₃, pH 9.6), and then added to a 96-well ELISA plate at a dose of 100 μL/well and incubated at 4° C. overnight for coating. After coating, the sample wells were washed with PBST, pH 7.4 4 times, added with 300 μL/well of 4% skim milk (PBS, pH 7.4), and incubated at 25° C. for 2 hours for blocking. After blocking, the sample wells were washed 4 times with PBST, pH 7.4, added with 100 μL/well of FcRn diluted with 0.4% skim milk dissolved in PBST (pH 6.0/7.4, respectively) (initial concentration 20 μg/mL, 2-fold gradient dilution, with 11 concentration gradients in total), and incubated at 25° C. for 1.5 hours. After incubation, the sample wells were washed 4 times with PBST, pH 6.0/7.4, added with anti-His-Tag-HRP diluted in 0.4% skim milk (1/500) (pH 6.0/7.4, respectively), and incubated at 25° C. for 1 hour. After incubation, the sample wells were washed 4 times with PBST, pH 6.0/7.4, and added with 100 μL/well of TMB for development (development conditions: 25° C., 10 to 15 minutes). After development, 100 μL/well of 1 M […] was added to stop the development reaction, and the absorbance at 450 nm was read out (background correction was performed by the subtraction of the absorbance at 650 nm).

[2] = target: T1, human PCSK9 antigen (GeneBank AX127530.1) (human, UniProt Q8NBP7 31-692); assay: BLI (Octet Red 96), antibody on AHC biosensor, human PCSK9 in solution, 1:1 model
T1 construct: also called huPCSK9; human PCSK9 protein
Method: (§2) The ability of PCSK9 mAbs to bind to human, mouse or cynomolgus PCSK9 was characterized using the Octet Red 96 system (ForteBio). A kinetic-grade biosensor (Fortebio, #18-5063) of anti-human IgG Fc (AHC) was immersed in assay buffer after glycine pretreatment at pH 1.7. The PCSK9 monoclonal antibody to be detected was immobilized to the AHC biosensor at a concentration of 10 μg/ml for 120 seconds. The AHC biosensor loaded with the PCSK9 monoclonal antibody was then immersed in human PCSK9 antigen (GeneBank AX127530.1), mouse PCSK9 antigen (NCBI NM_153565.2) or cynomolgus PCSK9 antigen (NCBI NM_001112660.1) of different concentrations and buffer. The final dilution point of the analyte column only contained the detection buffer to test the non-specific binding between the buffer and the loaded biosensor. Antigen-antibody binding was detected from 80 to 120 s, and dissociation was detected from 120 to 180 s. A 60 second baseline was determined with the assay buffer. The affinity curves for anti-PCSK9 monoclonal antibodies were fitted using a 1:1 binding kinetic sensing monovalent binding model.
The specific experimental procedures were shown in Example 4 and Example 5. As shown in FIG. 5 and Table 7, the affinity of the long half-life antibody 9M284QL to human PCSK9 protein was substantially identical to 9M284 because the Fab region (containing VH and VL) of the engineered antibody 9M284QL was not changed compared to 9M284. As the affinity was not changed, the long half-life Fc-modified PCSK9 antibody 9M284QL, 9M284YTE and the conventional half-life antibody 9M284 had similar EC50 in the comparative test of cellular LDL uptake experiment, as shown in FIG. 6 and Table 8.

[3] = target: T1, human PCSK9 antigen (GeneBank …); assay: cell-based or functional assay
[4] = target: human PCSK9 mutant protein D374H (human, UniProt Q8NBP7 31-692); assay: BLI (Octet Red 96), antibody on AHC biosensor, PCSK9 mutant in solution
Method: as §2
(§3) Human PCSK9 protein had different mutants. It was reported in the literature that there were many human PCSK9 mutants associated with hyperlipidemia. The inventors selected human PCSK9 mutant proteins of R218S, R306S, D374H, and D374Y among them, wherein the ability of PCSK9 mAbs of the invention in binding to different mutant PCSK9 proteins was characterized using the Octet Red 96 system (ForteBio) as described above. The kinetic analysis was shown in FIG. 7 and Table 9, except for R306S, the affinities of other human PCSK9 protein mutants to the PCSK9 monoclonal antibodies of the invention (normal IgG and long half-life IgG forms) were of the same order of magnitude as native human PCSK9 protein. Among them, the kon-binding ability of long half-life PCSK9 monoclonal antibody 9M284-QL to PCSK9 R218S protein was three times higher than that of 9M284 antibody.

[5] = target: human PCSK9 mutant protein D374Y (human, UniProt Q8NBP7 31-692); assay: as above
Method: as §2, §3

[6] = target: human PCSK9 mutant protein R306S (human, UniProt Q8NBP7 31-692); assay: as above
Method: as §2, §3

[7] = target: T2, human PCSK9 mutant protein R218S (human, UniProt Q8NBP7 31-692); assay: as above
T2 construct: also called PCSK9 R218S protein
Method: as §2, §3

[8] = target: neonatal Fc receptor FcRn; assay: ELISA at pH 6.0, antibody coated, His-tagged FcRn titrated; reference 9M284
Method: as §1

[9] = target: T2, human PCSK9 mutant protein R218S; assay: BLI (Octet Red 96); reference 9M284
Method: as §2
Human PCSK9 protein had different mutants. It was reported in the literature that there were many human PCSK9 mutants associated with hyperlipidemia. […]

[10] = target: T1, human PCSK9 antigen (GeneBank …); assay: cell-based or functional assay; remark: listed apart in the source
[11] = target: T3, mouse PCSK9 antigen (NCBI NM_153565.2) (mouse, UniProt Q80W65 35-694); assay: BLI (Octet Red 96), antibody on anti-human IgG Fc (AHC) biosensor, PCSK9 in solution, 1:1 model
T3 construct: also called msPCSK9
Method: as §2

[12] = target: T1, human PCSK9 antigen (GeneBank …); assay: as above
Method: as §2

Chain of neonatal Fc receptor FcRn (P55899 24-297, chain 1 of 2): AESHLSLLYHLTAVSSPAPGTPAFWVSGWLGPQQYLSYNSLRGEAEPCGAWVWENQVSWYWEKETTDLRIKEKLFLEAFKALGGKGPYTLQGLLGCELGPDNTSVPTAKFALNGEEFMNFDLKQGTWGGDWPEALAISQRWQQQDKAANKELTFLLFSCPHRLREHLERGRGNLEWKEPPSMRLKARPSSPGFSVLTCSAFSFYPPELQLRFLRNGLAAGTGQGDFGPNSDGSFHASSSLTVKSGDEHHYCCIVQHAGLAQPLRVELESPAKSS
Chain of neonatal Fc receptor FcRn (P61769 21-119, chain 2 of 2, further chain): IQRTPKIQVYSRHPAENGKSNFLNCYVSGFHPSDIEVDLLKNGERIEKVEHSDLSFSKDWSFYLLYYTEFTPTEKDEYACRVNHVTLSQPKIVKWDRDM
Chain of human PCSK9 mutant protein D374Y (Q8NBP7 31-692 D374Y limits assumed): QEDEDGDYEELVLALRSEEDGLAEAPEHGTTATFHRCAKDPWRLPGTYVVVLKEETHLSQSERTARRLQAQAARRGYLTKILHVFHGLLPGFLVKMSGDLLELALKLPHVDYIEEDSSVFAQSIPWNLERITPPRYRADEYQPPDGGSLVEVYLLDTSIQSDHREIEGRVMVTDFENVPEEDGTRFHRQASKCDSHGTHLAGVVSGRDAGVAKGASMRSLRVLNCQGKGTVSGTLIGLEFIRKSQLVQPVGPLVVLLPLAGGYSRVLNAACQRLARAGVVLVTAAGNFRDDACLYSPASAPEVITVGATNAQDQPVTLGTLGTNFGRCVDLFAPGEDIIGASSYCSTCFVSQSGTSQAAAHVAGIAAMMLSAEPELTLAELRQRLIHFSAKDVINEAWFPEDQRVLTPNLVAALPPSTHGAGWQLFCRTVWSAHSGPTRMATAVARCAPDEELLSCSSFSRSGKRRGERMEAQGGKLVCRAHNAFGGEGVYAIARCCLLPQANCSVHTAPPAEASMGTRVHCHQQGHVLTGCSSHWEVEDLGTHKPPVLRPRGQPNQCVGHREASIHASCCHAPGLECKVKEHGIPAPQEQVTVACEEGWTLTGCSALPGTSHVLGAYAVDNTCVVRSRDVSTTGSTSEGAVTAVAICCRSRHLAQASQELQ
T1 sequence (Q8NBP7 31-692 limits assumed): as the sequence (Q8NBP7 31-692 D374Y limits assumed) above, with Y344D counted along it
T2 sequence (Q8NBP7 31-692 R218S limits assumed): as the sequence (Q8NBP7 31-692 D374Y limits assumed) above, with R188S, Y344D counted along it
Chain of human PCSK9 mutant protein D374H (Q8NBP7 31-692 D374H limits assumed): as the sequence (Q8NBP7 31-692 D374Y limits assumed) above, with Y344H counted along it
T3 sequence (Q80W65 35-694 limits assumed): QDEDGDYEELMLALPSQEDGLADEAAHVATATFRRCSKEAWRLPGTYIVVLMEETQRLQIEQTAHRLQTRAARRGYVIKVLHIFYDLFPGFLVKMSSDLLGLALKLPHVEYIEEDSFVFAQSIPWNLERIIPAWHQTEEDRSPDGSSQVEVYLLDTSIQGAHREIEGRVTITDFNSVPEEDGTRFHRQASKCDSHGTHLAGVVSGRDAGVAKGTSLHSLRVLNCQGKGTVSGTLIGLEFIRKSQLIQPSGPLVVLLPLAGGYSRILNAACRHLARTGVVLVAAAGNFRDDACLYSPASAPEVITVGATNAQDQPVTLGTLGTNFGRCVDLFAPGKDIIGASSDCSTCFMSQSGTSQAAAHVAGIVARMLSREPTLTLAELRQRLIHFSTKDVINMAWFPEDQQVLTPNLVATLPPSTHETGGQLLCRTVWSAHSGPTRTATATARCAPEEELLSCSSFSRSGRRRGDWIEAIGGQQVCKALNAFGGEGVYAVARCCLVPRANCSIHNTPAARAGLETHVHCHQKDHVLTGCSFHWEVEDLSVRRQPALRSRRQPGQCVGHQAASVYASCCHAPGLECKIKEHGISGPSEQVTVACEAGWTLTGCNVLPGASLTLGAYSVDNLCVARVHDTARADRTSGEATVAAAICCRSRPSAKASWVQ
Chain of human PCSK9 mutant protein R306S (Q8NBP7 31-692 R306S limits assumed): as the sequence (Q8NBP7 31-692 D374Y limits assumed) above, with R276S, Y344D counted along it

| Binder | EC50 [1] [µg/mL] | Kd [2] [nM] | koff [2] [s⁻¹] | kon [2] [M⁻¹ s⁻¹] | EC50, cellular LDL uptake experiment [3] [µg/mL] | Kd [4] [nM] | koff [4] [s⁻¹] | kon [4] [M⁻¹ s⁻¹] | Kd [5] [nM] | koff [5] [s⁻¹] | kon [5] [M⁻¹ s⁻¹] | Kd [6] [nM] | koff [6] [s⁻¹] | kon [6] [M⁻¹ s⁻¹] | Kd [7] [nM] | koff [7] [s⁻¹] | kon [7] [M⁻¹ s⁻¹] | fold smaller EC50 than 9M284 [8] [fold] | IC50, cellular LDL uptake assay (HepG2 cells, Dil-LDL, 20 µg/ml human PCSK9) [10] [nM] | Kd [11] [nM] | also measured |
| --- | --- | --- | --- | --- | --- | --- | --- | --- | --- | --- | --- | --- | --- | --- | --- | --- | --- | --- | --- | --- | --- |
| B1 | 25 | < 0.001 | < 1e-07 | 58500 | 5.28 | < 0.001 | < 1e-07 | 26900 | < 0.001 | < 1e-07 | 29700 | 1.46 | 4.64e-05 | 31800 | < 0.001 | < 1e-07 | 36500 | 2.8 |  |  | fold higher kon than 9M284 [9]: 3 fold |
| B2 | 24.3 |  |  |  | 4.36 |  |  |  |  |  |  |  |  |  |  |  |  | 2.8 |  |  |  |
| B3 |  |  |  |  |  |  |  |  |  |  |  |  |  |  |  |  |  |  | 6.12 | 14 | koff [11]: 0.0051 s⁻¹; kon [11]: 350000 M⁻¹ s⁻¹; Kd [12]: < 0.001 nM; koff [12]: < 1e-07 s⁻¹; kon [12]: 399000 M⁻¹ s⁻¹ |
| B4 | 71.9 | < 0.001 | < 1e-07 | 56000 | 4.52 | < 0.001 | < 1e-07 | 24900 | < 0.001 | < 1e-07 | 21800 | 2.4 | 8.14e-05 | 33900 | < 0.001 | < 1e-07 | 11400 |  | 5.75 | 3 | koff [11]: 0.00094 s⁻¹; kon [11]: 320000 M⁻¹ s⁻¹; Kd [12]: < 0.001 nM; koff [12]: < 1e-07 s⁻¹; kon [12]: 366000 M⁻¹ s⁻¹ |
